Results reported in patent EP4772193A1 (Teijin Pharma Limited, dated 2026).
Like-named read-outs stand apart in the source and are kept apart here.

What was measured:
[1] = target: T1, recombinant human soluble gpNMB (recombinant human gpNMB-FLAG-His) (human, UniProt Q14956 23-498); assay: antigen ELISA
T1 sequence: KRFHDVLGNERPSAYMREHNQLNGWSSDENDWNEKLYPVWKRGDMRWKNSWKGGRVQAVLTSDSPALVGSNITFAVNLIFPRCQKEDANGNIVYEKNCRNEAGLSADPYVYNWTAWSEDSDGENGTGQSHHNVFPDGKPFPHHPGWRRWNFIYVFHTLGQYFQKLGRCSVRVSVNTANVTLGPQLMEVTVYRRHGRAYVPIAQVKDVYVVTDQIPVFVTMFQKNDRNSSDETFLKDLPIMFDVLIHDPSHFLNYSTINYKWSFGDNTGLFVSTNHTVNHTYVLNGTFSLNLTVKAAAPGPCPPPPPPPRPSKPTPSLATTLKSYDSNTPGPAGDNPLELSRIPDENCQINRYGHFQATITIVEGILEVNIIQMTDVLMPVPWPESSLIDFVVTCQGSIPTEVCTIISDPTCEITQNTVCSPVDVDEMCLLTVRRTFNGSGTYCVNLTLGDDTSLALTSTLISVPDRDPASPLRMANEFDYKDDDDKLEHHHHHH

[2] = target: T1, recombinant human soluble gpNMB …; assay: antigen ELISA; remark: listed apart in the source
[3] = target: T1, recombinant human soluble gpNMB …; assay: antigen ELISA; remark: listed apart in the source
[4] = target: T1, recombinant human soluble gpNMB …; assay: antigen ELISA; remark: listed apart in the source
[5] = target: T1, recombinant human soluble gpNMB …; assay: antigen ELISA, vs hGPN06-1_H1L1
[6] = target: T1, recombinant human soluble gpNMB …; assay: antigen ELISA, vs hGPN06-1_H1L1; remark: listed apart in the source
[7] = target: T1, recombinant human soluble gpNMB …; assay: antigen ELISA, vs hGPN06-1_H1L1; remark: listed apart in the source
[8] = target: T1, recombinant human soluble gpNMB …; assay: SPR, antibody over captured gpNMB-FLAG-His, 1:1 model

EC50 [1]: 0.575 nM
EC50 [2]: 1.98 nM
EC50 [3]: 1.98 nM
EC50 [4]: 1.98 nM
Relative binding activity [5]: 1
Relative binding activity [6]: 1
Relative binding activity [7]: 1
Kd [8]: 0.62 nM
koff [8]: 0.000567 s⁻¹
kon [8]: 916000 M⁻¹ s⁻¹
B1: hGPN06-1_H1L1 (antibody, V domains shown)
VH: QVQLVQSGAEVKKPGASVKVSCKASGYTFTDNWMGWVKQRPGQGLEWIGAIDPSDSFTNYNQNFKGRVTMTVDTSISTAYMELSRLRSDDSAVYFCTRSGYYGSPKLGGDYWGQGTLVTVSS
VL: EIVLTQSPSSLSASVGDRVTITCSASSSISYMHWYQQKSGTAPKLLIYSTSNLASGVPSRFSGSGSGTDFTFTISSLQPEDAATYYCHQWNSYPCTFGGGTKLEIK
notes: humanized; also called humanized anti-gpNMB antibody H1L1
